Results as given in patent US20260167721A1 (ABLEXIS, published 2026).
Where a chain is given by its changes, count along the chain named.

B1: ABL-CD3-64 (antibody, V domains shown)
VH: EVQVAESGGGLVKPGGSLRLSCAASGFTFSRYSMNWVRQAPGKGLEWVSSISSSGSYTYYADSVKGRFTISRDNAKNSLYLQMNSLRAEDTAVYYCVRERGKGAGMDVWGQGTTVTVSS
VL: NFMLTQPHSVSESPGKTVTISCTRSSGSIASNYVQWYQQRPGSSPTTVIYEDNQRPSGVPDRFSGSIDSSSNSASLTISGLKTEDEADYYCQSYDSSNRVFGGGTKLTVL
notes: mAb purified from hybridoma; chimeric AlivaMab IgG (human VH, CH1 and upper hinge; mouse middle hinge, CH2, CH3; human light chain)
B2: ABL-CD3-87 (antibody, V domains shown)
VH: B1 VH with V4L, A5V, P14F, G55S, T58K, V97A, R100G, K102N, G103S, A104H
VL: B1 VL
notes: as for B1
B3: ABL-CD3-65 (antibody, V domains shown)
VH: QVQLQQWGAGLLKPSETLSLTCAVYGGSFSGYYWSWIRQPPGKGLEWIGEINHSGSTNYNPSLKSRVTISVDTSKNQFSLKLSSVTAADTAVYYCAREYYYYGMDVWGQGTTVTVSS
VL: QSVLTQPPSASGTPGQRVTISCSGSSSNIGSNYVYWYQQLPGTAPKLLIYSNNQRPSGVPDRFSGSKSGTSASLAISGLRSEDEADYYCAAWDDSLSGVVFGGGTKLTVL
notes: as for B1
B4: CD3 × CD33-BspAb45 (bispecific antibody)
chain 1: EVQLVESGGGLVQPGGSLRLSCAASGFTFSRYSMNWVRQAPGKCLEWVSYISSSSSSIYYADSVKGRFTISRDNAKNSLYLQMNSLRDEDTAVYYCARDRRATLDYWGQGTLVTVSSGGGGSGGGGSGGGGSGGGGSNFMLTQPHSVSESPGKTVTISCTRSSGSIASNYVQWYQQRPGSSPTTVIYEDNQRPSGVPDRFSGSIDSSSNSASLTISGLKTEDEADYYCQSYDSSNHVFGCGTKLTVLDKTHTCPPCPAPEFEGGPSVFLFPPKPKDTLMISRTPEVTCVVVDVSHEDPEVKFNWYVDGVEVHNAKTKPREEQYNSTYRVVSVLTVLHQDWLNGKEYKCKVSNKALPASIEKTISKAKGQPREPQVYTLPPCREEMTKNQVSLWCLVKGFYPSDIAVEWESNGQPENNYKTTPPVLDSDGSFFLYSKLTVDKSRWQQGNVFSCSVMHEALHNHYTQKSLSLSPGK
chain 2: EVQLVQSGAEVKKPGSSVKVSCKASGYTITDSNIHWVRQAPGQSLEWIGYIYPYNGGTDYNQKFKNRATLTVDNPTNTAYMELSSLRSEDTAFYYCVNGNPWLAYWGQGTLVTVSSASTKGPSVFPLAPSSKSTSGGTAALGCLVKDYFPEPVTVSWNSGALTSGVHTFPAVLQSSGLYSLSSVVTVPSSSLGTQTYICNVNHKPSNTKVDKRVEPKSCDKTHTCPPCPAPEFEGGPSVFLFPPKPKDTLMISRTPEVTCVVVDVSHEDPEVKFNWYVDGVEVHNAKTKPREEQYNSTYRVVSVLTVLHQDWLNGKEYKCKVSNKALPASIEKTISKAKGQPREPQVCTLPPSREEMTKNQVSLSCAVKGFYPSDIAVEWESNGQPENNYKTTPPVLDSDGSFFLVSKLTVDKSRWQQGNVFSCSVMHEALHNRFTQKSLSLSPGK
chain 3: DIQLTQSPSTLSASVGDRVTITCRASESLDNYGIRFLTWFQQKPGKAPKLLMYAASNQGSGVPSRFSGSGSGTEFTLTISSLQPDDFATYYCQQTKEVPWSFGQGTKVEVKRTVAAPSVFIFPPSDEQLKSGTASVVCLLNNFYPREAKVQWKVDNALQSGNSQESVTEQDSKDSTYSLSSTLTLSKADYEKHKVYACEVTHQGLSSPVTKSFNRGEC
B5: CD3 × CD33-BspAb51 (bispecific antibody)
chain 1: not shown
chain 2: B4 chain 2
chain 3: B4 chain 3
B6: CD3 × CD33-BspAb52 (bispecific antibody)
chain 1: not shown
chain 2: B4 chain 2
chain 3: B4 chain 3
B7: CD3 × CD33-BspAb66 (bispecific antibody, human IgG1, kappa)
scFv: EVQLVESGGGLVQPGRSLRLSCAASGFTFDDYAMHWVRQAPGKGLEWVSGISWNSGSIGYADSVKGRFTISRDNAKNSLYLQMNSLRAEDTALYYCAKDSRGYGDYRLGGAYWGQGTLVTVSSGGGGSGGGGSGGGGSGGGGSEIVMTQSPATLSVSPGERATLSCRASQSVSSNLAWYQQKPGQAPRLLIYGASTRATGIPARFSGSGSGTEFTLTISSLQSEDFAVYYCQQYNNWPWTFGQGTKVEIKTSGPGGPDKTHTCPPCPAPEFEGGPSVFLFPPKPKDTLMISRTPEVTCVVVDVSHEDPEVKFNWYVDGVEVHNAKTKPREEQYNSTYRVVSVLTVLHQDWLNGKEYKCKVSNKALPASIEKTISKAKGQPREPQVYTLPPCREEMTKNQVSLWCLVKGFYPSDIAVEWESNGQPENNYKTTPPVLDSDGSFFLYSKLTVDKSRWQQGNVFSCSVMHEALHNHYTQKSLSLSPGK
heavy: B4 chain 2
light: B4 chain 3
B8: CD3 × CD33-BspAb73 (bispecific antibody)
chain 1: EVQLVESGGGLVKPGGSLRLSCAASGFTFSSYSMNWVRQAPGKCLEWVSSVNSRGSYIYYADSVKGRFTISRDNAKDSLYLQMNSLRADDTAVYYCARDRRELLLDYWGQGTLVTVSSGGGGSGGGGSGGGGSGGGGSSYELTQPPSVSVSPGQTARITCSGDALPKKYAYWYQQKSGQAPVLVIYEDSKRPSGIPERFSGSSSGTMATLTISGAQVEDEADYYCYSTDSSGNHSWVFGCGTKLTVLDKTHTCPPCPAPEFEGGPSVFLFPPKPKDTLMISRTPEVTCVVVDVSHEDPEVKFNWYVDGVEVHNAKTKPREEQYNSTYRVVSVLTVLHQDWLNGKEYKCKVSNKALPASIEKTISKAKGQPREPQVYTLPPCREEMTKNQVSLWCLVKGFYPSDIAVEWESNGQPENNYKTTPPVLDSDGSFFLYSKLTVDKSRWQQGNVFSCSVMHEALHNHYTQKSLSLSPGK
chain 2: B4 chain 2
chain 3: B4 chain 3
B9: CD3 × CD33-BspAb72 (bispecific antibody)
chain 1: EVQLVESGGGLVQPGGSLRLSCAASGFTFSSYSMNWVRQAPGKCLEWVSYISSSSSTIYYADSVKGRFTISRDNAKNSLYLQMNSLRDEDTAVYYCARDGPVDYGMDVWGQGTTVTVSSGGGGSGGGGSGGGGSGGGGSSYELTQPPSVSVSPGQTARITCSGDALPKQYTYWYQQKPGQAPVLVIYKDSERPSGIPERFSGSSSGTTVTLTISGVQAEDEADYYCQSADSSGTYRVFGCGTKLTVLDKTHTCPPCPAPEFEGGPSVFLFPPKPKDTLMISRTPEVTCVVVDVSHEDPEVKFNWYVDGVEVHNAKTKPREEQYNSTYRVVSVLTVLHQDWLNGKEYKCKVSNKALPASIEKTISKAKGQPREPQVYTLPPCREEMTKNQVSLWCLVKGFYPSDIAVEWESNGQPENNYKTTPPVLDSDGSFFLYSKLTVDKSRWQQGNVFSCSVMHEALHNHYTQKSLSLSPGK
chain 2: B4 chain 2
chain 3: B4 chain 3

target: T1, recombinant human CD3 epsilon/delta heterodimer (human, UniProt P07766 23-126; P04234 22-105); assay: BLI (Octet), mAb 5 ug/mL on FAB2G sensor, hCD3 E/D 200-50 nM
T1 construct: Recombinant heterodimer used as analyte in Octet; also called hCD3 E/D; human CD3E/D
T1 sequence (P07766 23-126, stated change not applied, chain 1 of 2): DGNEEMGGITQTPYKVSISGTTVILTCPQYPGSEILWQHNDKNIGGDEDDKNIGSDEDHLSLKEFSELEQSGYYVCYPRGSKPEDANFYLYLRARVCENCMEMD
T1 sequence (P04234 22-105, stated change not applied, chain 2 of 2): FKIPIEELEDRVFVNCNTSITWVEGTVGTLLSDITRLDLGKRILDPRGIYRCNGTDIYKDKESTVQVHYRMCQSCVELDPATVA

| Binder | Kd [nM] | Response | koff [s⁻¹] | kon [M⁻¹ s⁻¹] |
| --- | --- | --- | --- | --- |
| B1 | 31.6 | 0.68 | 0.0054 | 171000 |
| B2 | 69 | 0.0358 | 0.0166 | 240000 |
| B3 | 22.7 | 0.01 | 0.00643 | 283000 |

target: T2, recombinant human CD3 epsilon/gamma heterodimer (human, UniProt P07766 23-126; P09693 23-116); assay: BLI (Octet), mAb 5 ug/mL on FAB2G sensor, hCD3 E/G 200-50 nM;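 note: antibodies purified from hybridoma supernatants, measured by Octet binding to recombinant human CD3 protein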
T2 construct: Recombinant heterodimer used as analyte in Octet; also called hCD3 E/G
T2 sequence (P07766 23-126, chain 1 of 2): as the sequence (P07766 23-126, stated change not applied, chain 1 of 2) above
T2 sequence (P09693 23-116, chain 2 of 2): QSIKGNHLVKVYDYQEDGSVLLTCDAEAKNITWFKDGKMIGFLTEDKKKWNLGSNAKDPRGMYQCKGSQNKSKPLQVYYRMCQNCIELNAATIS

| Binder | Kd [nM] | Response | koff [s⁻¹] | kon [M⁻¹ s⁻¹] |
| --- | --- | --- | --- | --- |
| B1 | 71.9 | 0.46 | 0.013 | 180000 |
| B2 | 131 | 0.36 | 0.0279 | 214000 |
| B3 | 18.7 | 0.01 | 0.00174 | 93200 |

target: T3, human CD3 (on human Pan-T cells or donor PBMC) (human, UniProt P07766 23-207; P04234 22-171; P09693 23-182; P20963 22-164); assay: cell-based or functional assay
T3 sequence (P07766 23-207, chain 1 of 4): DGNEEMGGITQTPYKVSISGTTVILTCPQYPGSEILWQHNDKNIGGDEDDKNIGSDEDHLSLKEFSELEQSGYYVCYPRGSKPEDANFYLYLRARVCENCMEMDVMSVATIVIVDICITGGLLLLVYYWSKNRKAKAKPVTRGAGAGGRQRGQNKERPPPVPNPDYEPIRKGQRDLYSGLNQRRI
T3 sequence (P04234 22-171, chain 2 of 4): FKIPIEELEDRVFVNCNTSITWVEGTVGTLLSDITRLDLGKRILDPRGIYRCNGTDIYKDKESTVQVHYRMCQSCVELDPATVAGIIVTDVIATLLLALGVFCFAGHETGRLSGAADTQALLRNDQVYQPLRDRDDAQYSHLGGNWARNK
T3 sequence (P09693 23-182, chain 3 of 4): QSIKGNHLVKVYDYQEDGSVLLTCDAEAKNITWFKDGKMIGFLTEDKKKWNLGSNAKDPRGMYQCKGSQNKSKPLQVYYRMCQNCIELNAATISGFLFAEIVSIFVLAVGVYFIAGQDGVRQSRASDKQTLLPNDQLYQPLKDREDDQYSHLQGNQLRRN
T3 sequence (P20963 22-164, chain 4 of 4): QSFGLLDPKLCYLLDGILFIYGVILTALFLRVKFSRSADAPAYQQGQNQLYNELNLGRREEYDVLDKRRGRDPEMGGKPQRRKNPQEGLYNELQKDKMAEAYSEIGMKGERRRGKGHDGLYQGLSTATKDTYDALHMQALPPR

| Binder | RTCC Assay, Donor 0, EC50 [nM] | RTCC Assay, Donor 0, gMFI max [gMFI] | RTCC Assay, Donor 1, EC50 [nM] | RTCC Assay, Donor 1, gMFI max [gMFI] | RTCC Assay, Donor 2, EC50 [nM] | RTCC Assay, Donor 2, gMFI max [gMFI] | RTCC Assay, Donor 3, EC50 [nM] | RTCC Assay, Donor 3, gMFI max [gMFI] |
| --- | --- | --- | --- | --- | --- | --- | --- | --- |
| B4 | 0.03 | 23300 | 0.004 | 76100 | 0.012 | 55900 | 0.02 | 86700 |
| B5 | 0.2 | 28400 | 0.036 | 66900 | 0.05 | 55800 | 0.085 | 80600 |
| B6 | 5.21 | 16200 | 0.762 | 57800 | 2.28 | 37700 | 7.83 | 42700 |
| B7 | 2.92 | 29700 | 0.937 | 65800 | 1.85 | 53900 | 2.33 | 75900 |
| B8 | 0.086 | 15600 | 0.035 | 79900 | 0.089 | 56100 | 0.159 | 74000 |
| B9 | 5.36 | 21000 | 0.819 | 78100 | 2.43 | 54100 | 4.9 | 66200 |

target: T3, human CD3 (on human Pan-T cells or …); assay: cell-based or functional assay; remark: another data set of the same source

| Binder | Cytokine Release Assay (IFNγ), Donor 0, EC50 [nM] | Cytokine Release Assay (IFNγ), Donor 0, gMFI max [gMFI] | Cytokine Release Assay (IFNγ), Donor 1, gMFI max [gMFI] | Cytokine Release Assay (IFNγ), Donor 2, EC50 [nM] | Cytokine Release Assay (IFNγ), Donor 2, gMFI max [gMFI] | Cytokine Release Assay (IFNγ), Donor 3, gMFI max [gMFI] | Cytokine Release Assay (IFNγ), Donor 1, EC50 [nM] | Cytokine Release Assay (IFNγ), Donor 3, EC50 [nM] |
| --- | --- | --- | --- | --- | --- | --- | --- | --- |
| B4 | 0.096 | 1.39e+06 | 4630 | 0.0684 | 26900 | 290000 | – | – |
| B5 | 0.269 | 1.34e+06 | 10800 | 0.292 | 30600 | 355000 | 15.3 | 0.214 |
| B6 | – | 6350 | 4220 | – | 4670 | 8060 | – | 25.4 |
| B7 | 12.9 | 1.25e+06 | 7650 | 22.9 | 28300 | 379000 | – | 52.6 |
| B8 | – | 308000 | 4350 | 8.61 | 26900 | 198000 | – | 4.64 |
| B9 | – | 465000 | 4820 | 49.1 | 12200 | 82800 | – | – |
